Experimental findings from patent EP4722228A1 (The University of Tokyo, dated 2024) are described below.

Bridge positions count the residues as written; N and C are the ends. Square brackets hold non-standard residues; d marks the D form. Ends that are not written are not given here.

Assay [1] has as its target T1, Recombinant Rat MuSK Fc Chimera Protein (catalog number: 9847-MK-050, R&D Systems) (rat, UniProt Q62838 22-494).
T1 construct: Bought reagent; also called Fc-tagged rat MuSK; not shown: Fc protein of the bought chimera
T1 sequence (looked up): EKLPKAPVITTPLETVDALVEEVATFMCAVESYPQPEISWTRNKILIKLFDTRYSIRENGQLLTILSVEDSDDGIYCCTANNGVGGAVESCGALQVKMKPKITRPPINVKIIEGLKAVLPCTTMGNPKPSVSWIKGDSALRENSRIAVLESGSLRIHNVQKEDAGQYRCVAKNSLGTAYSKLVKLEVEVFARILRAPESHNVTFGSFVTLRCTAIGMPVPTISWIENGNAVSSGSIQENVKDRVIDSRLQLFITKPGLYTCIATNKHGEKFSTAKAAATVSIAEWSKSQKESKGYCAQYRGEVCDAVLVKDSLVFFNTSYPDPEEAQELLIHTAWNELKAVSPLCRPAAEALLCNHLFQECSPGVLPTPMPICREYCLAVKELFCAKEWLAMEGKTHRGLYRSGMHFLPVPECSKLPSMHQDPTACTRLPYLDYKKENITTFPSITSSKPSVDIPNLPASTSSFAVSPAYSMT
The experiment in a line: SPR (Biacore T200), Fc-tagged rat MuSK on Protein G/A chip, 1:1 fit.

The target in assay [2] is Fc-tagged mouse MuSK extracellular domain (mouse). The assay can be described thus: SPR (Biacore T200), Fc-tagged mouse MuSK on Protein G/A chip, 1:1 fit.
Fc-tagged mouse MuSK extracellular domain (mouse), sequence (chain, as listed by the source limits assumed): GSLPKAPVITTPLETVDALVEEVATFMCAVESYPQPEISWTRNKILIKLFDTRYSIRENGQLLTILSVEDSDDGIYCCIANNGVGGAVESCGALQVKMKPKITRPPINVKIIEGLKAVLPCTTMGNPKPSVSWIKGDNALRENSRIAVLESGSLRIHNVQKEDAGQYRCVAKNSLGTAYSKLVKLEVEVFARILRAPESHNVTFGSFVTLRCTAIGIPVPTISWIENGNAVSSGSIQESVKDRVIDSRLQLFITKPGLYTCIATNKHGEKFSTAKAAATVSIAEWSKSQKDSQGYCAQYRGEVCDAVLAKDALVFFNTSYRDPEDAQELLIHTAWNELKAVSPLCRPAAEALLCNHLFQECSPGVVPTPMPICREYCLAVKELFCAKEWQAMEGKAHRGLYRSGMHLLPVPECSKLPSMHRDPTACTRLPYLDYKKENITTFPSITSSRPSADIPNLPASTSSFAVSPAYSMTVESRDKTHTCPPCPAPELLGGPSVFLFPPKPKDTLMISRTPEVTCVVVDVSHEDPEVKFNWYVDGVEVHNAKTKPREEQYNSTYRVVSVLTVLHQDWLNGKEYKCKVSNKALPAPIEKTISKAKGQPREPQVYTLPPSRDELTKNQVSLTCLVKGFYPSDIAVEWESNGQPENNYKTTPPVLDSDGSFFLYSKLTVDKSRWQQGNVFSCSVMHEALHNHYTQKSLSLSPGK

B1: Homodimer of MuSK7 with an introduced palmitoyl group (MuSK7-pal) (peptide)
peptide: {CH2CO}-[dY]PSYHTNVVASLKRC
modifications: thioether N-15; also: homodimer: two peptides condensed via C-terminal Cys carboxyl with linking unit bearing palmitic acid
notes: also called Dimeric peptide
B1: the Kd in assay [1] was found to be 2 nM; in assay [2] it was 8.8 nM.
